Here are results for five molecules from US20240109955A1.

Holding throughout (assay): cell-based or functional assay
Test [1] deals with SARS-CoV-2 spike (S) protein, Omicron sublineage BA.2.75.2 (SARS-CoV-2).
The target in test [2] is SARS-CoV-2 spike (S) protein, Omicron sublineage BA.4/5 (SARS-CoV-2).
For test [3], the target named is SARS-CoV-2 spike (S) protein, Omicron sublineage BQ.1 (SARS-CoV-2).
The target of test [4] is SARS-CoV-2 spike (S) protein, Omicron sublineage BQ.1.1 (SARS-CoV-2).
The target in test [5] is SARS-CoV-2 spike (S) protein, Omicron sublineage XBB (SARS-CoV-2).
The target in test [6] is SARS-CoV-2 Omicron BA.2.75.2 spike protein (SARS-CoV-2).
Test [7] addresses SARS-CoV-2 Omicron BA.4/5 spike protein (SARS-CoV-2).
The target in test [8] is SARS-CoV-2 Omicron BQ.1 spike protein (SARS-CoV-2).
The target in test [9] is SARS-CoV-2 Omicron BQ.1.1 spike protein (SARS-CoV-2).
Test [10] has as its target SARS-CoV-2 Omicron XBB spike protein (SARS-CoV-2).

B1: F769-E12 (antibody, V domains shown)
VH: EVQLVESGGGLIQPGGSLRLSCAASGVIVSYNYMNWVRQAPGKGLEWVSVIYSGGSTFYADSVRGRFTISRDNSKNTLYLQMNSLRAEDTAVYYCARDLGPAGAFDIWGLGTMVTVSS
VL: EIVLTQSPGTLSLSPGETATLSCRASQSFSSDLAWYQQKPGQAPRLLIYGASSRATGIPDRFSGSGSGTDFTLTISRLEPADFAVYYCQQYGSSPPVTFGGGTKVEIK
As for B1, the IC50, pseudovirus neutralization in test [1] was determined as 0.00699 µg/mL; in [2] it was 0.00462 µg/mL; in test [3] it was 0.0119 µg/mL; in test [4] it was 0.00529 µg/mL; in test [5], 0.0126 µg/mL. The IC80, pseudovirus neutralization was 0.0401 µg/mL in test [1]; 0.00921 µg/mL in test [2]; 0.0409 µg/mL in test [3]; 0.0174 µg/mL in test [4]; 0.0311 µg/mL in [5].

B2: MX1045 (bispecific antibody)
chain 1: EIVLTQSPGTLSLSPGETATLSCRASQSFSSDLAWYQQKPGQAPRLLIYGASSRATGIPDRFSGSGSGTDFTLTISRLEPADFAVYYCQQYGSSPPVTFGGGTKVEIKGGSSGQTVVTQEPSFSVSPGGTVTLTCGLSSGSVSTAYFPSWYQQTPGQAPRTLIYGTNTRSSGVPDRFSGSILGNKAALTITGAQADDESDYYCVLYMGRGIVVFGGGTKLTVLGGGGSGGSGSGGGGSASGSGQVQLVESGGGVVQPGRSLRLSCAASGFTLSSYGMHWVRQAPGKGLEWVAVISYDGSNKYYVDSVKGRFTISRDNSKNTLYLQMNSLRAEDTAVYYCRWAYWELLPDYYYGMDVWGQGTTVTVSSGGSSGEVQLVESGGGLIQPGGSLRLSCAASGVIVSYNYMNWVRQAPGKGLEWVSVIYSGGSTFYADSVRGRFTISRDNSKNTLYLQMNSLRAEDTAVYYCARDLGPAGAFDIWGLGTMVTVSSASGGSGDKTHTCPPCPAPELLGGPSVFLFPPKPKDTLMISRTPEVTCVVVDVSHEDPEVKFNWYVDGVEVHNAKTKPREEQYNSYVVSVLTVLHQDWLNGKEYKCKVSNKALPAPIEKTISKAKGQPREPQVYTLPPCRDELTKNQVSLWCLVKGFYPSDIAVEWESNGQPENNYKTTPPVLDSDGSFFKKLTVDKSRWQQGNVFSCSVLHEALHSHYTQKSLSLSPG
chain 2: QTVVTQEPSFSVSPGGTVTLTCGLSSGSVSTAYFPSWYQQTPGQAPRTLIYGTNTRSSGVPDRFSGSILGNKAALTITGAQADDESDYYCVLYMGRGIVVFGGGTKLTVLGGSSGEIVLTQSPGTLSLSPGETATLSCRASQSFSSDLAWYQQKPGQAPRLLIYGASSRATGIPDRFSGSGSGTDFTLTISRLEPADFAVYYCQQYGSSPPVTFGGGTKVEIKGGGGSGGSGSGGGGSASGSGEVQLVESGGGLIQPGGSLRLSCAASGVIVSYNYMNWVRQAPGKGLEWVSVIYSGGSTFYADSVRGRFTISRDNSKNTLYLQMNSLRAEDTAVYYCARDLGPAGAFDIWGLGTMVTVSSGGSSGQVQLVESGGGVVQPGRSLRLSCAASGFTLSSYGMHWVRQAPGKGLEWVAVISYDGSNKYYVDSVKGRFTISRDNSKNTLYLQMNSLRAEDTAVYYCRWAYWELLPDYYYGMDVWGQGTTVTVSSASGGSGDKTHTCPPCPAPELLGGPSVFLFPPKPKDTLMISRTPEVTCVVVDVSHEDPEVKFNWYVDGVEVHNAKTKPREEQYNSYVVSVLTVLHQDWLNGKEYKCKVSNKALPAPIEKTISKAKGQPREPQVCTLPPSRDELTKNQVSLSCAVKGFYPSDIAVEWESNGQPENNYKTTPPVLDSDGSFFLVSKLTVDKSRWQQGNVFSCSVLHEALHSHYTQKSLSLSPG
Take B2: the IC50, pseudovirus neutralization in test [6] came to 0.00291 µg/mL; in test [7], 0.00268 µg/mL; in test [8] it was 0.00602 µg/mL; in [9], 0.0015 µg/mL; in test [10] it was 0.00609 µg/mL. Further, the IC80, pseudovirus neutralization is 0.00543 µg/mL in [6]; 0.00606 µg/mL in test [7]; 0.0223 µg/mL in test [8]; 0.00857 µg/mL in test [9]; 0.018 µg/mL in [10].

B3: E76-B8 (antibody, V domains shown)
VH: EVQLVESGGALIQPGGSLRLSCAASGIIVSANYMSWVRQAPGKGLEWVSVIYSGGSTFYADSVKGRFTISRDNSKNTLYLEMNSLRAEDTAVYYCARDAPILGVSDWGQGTLVTVSS
VL: EIVMTQSPAILSVSPGERATLSCRASQSVAINLAWYQQKPGQAPRLLIYAASSRATGIPGRFSGSGSETNFTLTISSLQSGDFAVYYCQQYITWPPSYTFGQGTKLEIK
For the molecule B3, the IC50, pseudovirus neutralization came to 0.0122 µg/mL in test [1]; 0.00697 µg/mL in [2]; 0.015 µg/mL in test [3]; 0.00457 µg/mL in [4]; 0.0134 µg/mL in [5]. Also, the IC80, pseudovirus neutralization in test [1] came to 0.0274 µg/mL; in [2], 0.0148 µg/mL; in [3], 0.0496 µg/mL; in test [4], 0.0217 µg/mL; in [5] it was 0.0472 µg/mL.

B4: F770-E8 (antibody, V domains shown)
VH: QVTLRESGPALVKPTQTLTLTCTFSGFSLSTRGVCVSWIRQPPGKALEWLAFIDWDDDKYYNTSLKTRLTISKDTSKNQVVLTMTNVHPVDTATYYCARISSHHGSSWCTTFDYWGQGALVTVSA
VL: DTVMTQSPLSLPVTPGEPASISCRSSQSLLNSNGYNYLDWYVQKPGQSPQLLIYLGSNRASGVPDRFSGSGSGTDFTLKISRVEAEDVGVYYCMQPLQTPLFTFGPGTKVEIK
On to B4, for which the IC50, pseudovirus neutralization was determined as 0.00172 µg/mL in test [1]; 0.00013 µg/mL in test [2]; 0.124 µg/mL in test [3]; 0.496 µg/mL in [4]; 0.0615 µg/mL in [5]. Moreover, the IC80, pseudovirus neutralization in test [1] worked out at 0.0059 µg/mL; in test [2], 0.00049 µg/mL; in test [3], 5.19 µg/mL; in test [4] it was 1.8 µg/mL; in test [5], 0.705 µg/mL.

B5: MX1058 (trispecific antibody)
chain 1: QTVVTQEPSFSVSPGGTVTLTCGLSSGSVSTAYFPSWYQQTPGQAPRTLIYGTNTRSSGVPDRFSGSILGNKAALTITGAQADDESDYYCVLYMGRGIVVFGGGTKLTVLGGSSGDTVMTQSPLSLPVTPGEPASISCRSSQSLLNSNGYNYLDWYVQKPGQSPQLLIYLGSNRASGVPDRFSGSGSGTDFTLKISRVEAEDVGVYYCMQPLQTPLFTFGPGTKVEIKGGGGSGGSGSGGGGSASGSGQVTLRESGPALVKPTQTLTLTCTFSGFSLSTRGVCVSWIRQPPGKALEWLAFIDWDDDKYYNTSLKTRLTISKDTSKNQVVLTMTNVHPVDTATYYCARISSHHGSSWCTTFDYWGQGALVTVSAGGSSGQVQLVESGGGVVQPGRSLRLSCAASGFTLSSYGMHWVRQAPGKGLEWVAVISYDGSNKYYVDSVKGRFTISRDNSKNTLYLQMNSLRAEDTAVYYCRWAYWELLPDYYYGMDVWGQGTTVTVSSASGGSGDKTHTCPPCPAPELLGGPSVFLFPPKPKDTLMISRTPEVTCVVVDVSHEDPEVKFNWYVDGVEVHNAKTKPREEQYNSYVVSVLTVLHQDWLNGKEYKCKVSNKALPAPIEKTISKAKGQPREPQVYTLPPCRDELTKNQVSLWCLVKGFYPSDIAVEWESNGQPENNYKTTPPVLDSDGSFFKKLTVDKSRWQQGNVFSCSVLHEALHSHYTQKSLSLSPG
chain 2: DTVMTQSPLSLPVTPGEPASISCRSSQSLLNSNGYNYLDWYVQKPGQSPQLLIYLGSNRASGVPDRFSGSGSGTDFTLKISRVEAEDVGVYYCMQPLQTPLFTFGPGTKVEIKGGSSGEIVMTQSPAILSVSPGERATLSCRASQSVAINLAWYQQKPGQAPRLLIYAASSRATGIPGRFSGSGSETNFTLTISSLQSGDFAVYYCQQYITWPPSYTFGQGTKLEIKGGGGSGGSGSGGGGSASGSGEVQLVESGGALIQPGGSLRLSCAASGIIVSANYMSWVRQAPGKGLEWVSVIYSGGSTFYADSVKGRFTISRDNSKNTLYLEMNSLRAEDTAVYYCARDAPILGVSDWGQGTLVTVSSGGSSGQVTLRESGPALVKPTQTLTLTCTFSGFSLSTRGVCVSWIRQPPGKALEWLAFIDWDDDKYYNTSLKTRLTISKDTSKNQVVLTMTNVHPVDTATYYCARISSHHGSSWCTTFDYWGQGALVTVSAASGGSGDKTHTCPPCPAPELLGGPSVFLFPPKPKDTLMISRTPEVTCVVVDVSHEDPEVKFNWYVDGVEVHNAKTKPREEQYNSYVVSVLTVLHQDWLNGKEYKCKVSNKALPAPIEKTISKAKGQPREPQVCTLPPSRDELTKNQVSLSCAVKGFYPSDIAVEWESNGQPENNYKTTPPVLDSDGSFFLVSKLTVDKSRWQQGNVFSCSVLHEALHSHYTQKSLSLSPG
For B5, the IC50, pseudovirus neutralization in test [1] turned out to be 0.00403 µg/mL; in test [2], 0.00274 µg/mL; in [3], 0.016 µg/mL; in test [4], 0.00449 µg/mL; in test [5], 0.0142 µg/mL. Besides, the IC80, pseudovirus neutralization was determined as 0.01 µg/mL in test [1]; 0.00551 µg/mL in test [2]; 0.032 µg/mL in [3]; 0.0285 µg/mL in [4]; 0.0318 µg/mL in test [5].
